Assay in all cases: MST; Clr4 constructs fluorescently labelled (BLUE-NHS), H3KC9me3 nucleosomes added at 8 nM to 2.5 μM; 10 mM Tris–HCl pH 7.5, 150 mM NaCl, 0.5 mM DTT, 0.05% Tween-20; 40% MST power, 80% LED; five runs
Test [1] concerns the target Clr4 CD-deleted construct (S. pombe).
The target of test [2] is full-length Clr4 (Cryptic loci regulator protein 4), H3K9 methyltransferase (S. pombe) (UniProt O60016).
The target of test [3] is Clr4 chromodomain construct (S. pombe) (UniProt O60016).

What is called Kd is the equilibrium constant for the complex coming apart. A low value points to a tighter complex.

Regarding “H3KC9me3 nucleosome (H3K9 trimethyl-lysine analog nucleosome) (complex)”, the Kd in test [1] amounted to 422 nM; in test [2], 541 nM; in test [3], 310 nM.

These data come from PMC10914790.
